Results taken from US20220168400A1, “USE OF A MANGANESE SUPEROXIDE DISMUTASE WITH HIGH STABILITY IN THE PREVENTION OR TREATMENT OF CEREBRAL STROKE” (CARRY HEALTH BIOPHARMACEUTICALS (HANGZHOU) CO., LTD., priority 2019, published 2022).
Values joined by “and” are separate entries in the source; they are usually repeats but may differ in a detail not shown here. Identical values can stand only once.

Columns and labels:
Type in all cases: in vivo
[1] = system: middle cerebral artery occlusion (MCAO) model in C57BL/6J mice; assay: Modified neurological severity score in MCAO model; settings: vs model group
Protocol: (3) MS-SOD1 group (10 mice): mice aged 4 weeks were fed with drinking water supplemented with MS-SOD for 4 weeks (3 U/day/g body weight), and then subjected to establish middle cerebral artery occlusion model;
(4) MS-SOD2 group (10 mice): after establishing middle cerebral artery occlusion model, the mice were intragastrically administered with MS-SOD 600 U once when they waked up from the anesthesia. […]
The procedure was performed on each group of mice. […] The mice in groups 2-4 were scored by double blind method.
Finally, the differences of different intervention conditions and MCAO model establishment on the degree of cerebral injury and neurological severity in mice were analyzed. All data were expressed as mean ±standard deviation. […]

[2] = system: cerebral ischemia model in Albino strain zebrafish; assay: Ponatinib-induced cerebral ischemia model in zebrafish; settings: for Number of zebrafish with cerebral ischemia / Incidence of cerebral ischemia: n = 20; for Incidence of cerebral ischemia: model control 100%
Protocol: Melanin allele mutated Albino strain zebrafish at 2 days post fertilization (2 dpf) was administered with an aqueous ponatinib solution (1 μg/mL) for 18 hours to establish a cerebral ischemia model in zebrafish. 180 melanin allele mutated Albino strain zebrafishes at 2 days post fertilization (2 dpf) were randomly selected. 30 zebrafishes were treated in each well (experiment group), and aqueous MS-SOD solutions with concentrations of 222, 667 and 2000 μg/mL were administrated respectively, the concentration of positive control drug aspirin was 50 μg/m L, and the normal control group and the model control group were set at the same time. The volume of each well was 3 mL. After MS-SOD treatment for a period of time, except for the normal control group, all the other experiment groups were simultaneously administrated with aqueous ponatinib solution to induce the cerebral ischemia model in zebrafish. After 18 hours of co-treatment with MS-SOD and ponatinib, 20 fish were randomly selected from each well and stained with o-Dianisidine. After staining, photos were taken and data were collected to count the number of zebrafish with cerebral ischemia and calculate the incidence of cerebral ischemia in zebrafish of each experiment group.

[3] = system: cerebral hemorrhage model in wild-type AB strain zebrafish; assay: Blood flow volume in simvastatin-induced cerebral hemorrhage model in zebrafish; settings: for Blood flow volume (mean ± SE): n = 10, model control 0.13, normal control 0.30 nL/s
Protocol: 3 dpf wild-type AB strain zebrafish was administered with an aqueous simvastatin solution (0.5 μM) for 18 hours to establish a cerebral hemorrhage model in zebrafish. 180 wild-type AB strain zebrafishes at 3 days post fertilization (3 dpf) were randomly selected and put in a six-well plate, 30 per well (experiment group). Aqueous MS-SOD solutions with concentrations of 222, 667 and 2000 μg/mL were administrated respectively, the concentration of positive control drug icariin was 30 μM, and the normal control group (the zebrafishes were treated with water for fish) and the model control group were set at the same time. The volume of each well was 3 mL. After treatment of zebrafishes with samples for 4 hours, except for the normal control group, the other experiment groups were treated with simvastatin for 18 hours to establish the cerebral hemorrhage model. After the treatment, 10 zebrafishes from each group were randomly selected and placed in a heart rate and blood flow analysis system to record blood flow video of zebrafish, and analyze the blood flow volume (O) of zebrafish. The statistical significance of the blood flow volume was used to evaluate the improvement effect of MS-SOD on blood flow volume of cerebral hemorrhage. The formula of the improvement effect of MS-SOD on blood flow volume of cerebral hemorrhage was as follows: [formula] Statistical analysis was performed using variance analysis and Dunnett's T-test, and p<0.05 indicated a significant difference. 4.

B1: MS-SOD: manganese superoxide dismutase with high stability, gene from Thermus thermophilus HB27 expressed in E. coli; amino acid sequence SEQ ID NO: 4 (protein)
chain: MPYPFKLPDLGYPYEALEPHIDAKTMEIHHQKHHGAYVTNLNAALEKYPYLHGVEVEVLLRHLAALPQDIQTAVRNNGGGHLNHSLFWRLLTPGGAKEPVGELKKAIDEQFGGFQALKEKLTQAAMGRFGSGWAWLVKDPFGKLHVLSTPNQDNPVMEGFTPIVGIDVWEHAYYLKYQNRRADYLQAIWNVLNWDVAEEFFKKA
modifications: Amino acid sequence for MS-SOD
- neurological severity score ([1]; MS-SOD1 group: 3 U/day/g body weight for 4 weeks before MCAO, P=0.281): not significantly improved
- neurological severity score (mNSS) ([1]; MS-SOD2 group: 600 U intragastrically once after MCAO, P=0.05): significantly reduced
- Improvement effect on cerebral ischemia ([2]; MS-SOD 222 μg/mL): 60%
- Number of zebrafish with cerebral ischemia ([2]; MS-SOD 222 μg/mL): 8
- Incidence of cerebral ischemia ([2]; MS-SOD 222 μg/mL): 40%
- Improvement effect on cerebral ischemia ([2]; MS-SOD 667 μg/mL): 65%
- Number of zebrafish with cerebral ischemia ([2]; MS-SOD 667 μg/mL): 7
- Incidence of cerebral ischemia ([2]; MS-SOD 667 μg/mL): 35%
- Improvement effect on cerebral ischemia ([2]; MS-SOD 2000 μg/mL): 55%
- Number of zebrafish with cerebral ischemia ([2]; MS-SOD 2000 μg/mL): 9
- Incidence of cerebral ischemia ([2]; MS-SOD 2000 μg/mL): 45%
- Blood flow volume improvement effect ([3]; MS-SOD 222 μg/mL): 59%
- Blood flow volume (mean ± SE) ([3]; MS-SOD 222 μg/mL): 0.23 nL/s and 0.23 ± 0.014 nL/s
- Blood flow volume improvement effect ([3]; MS-SOD 667 μg/mL): 71%
- Blood flow volume (mean ± SE) ([3]; MS-SOD 667 μg/mL): 0.25 nL/s and 0.25 ± 0.024 nL/s
- Blood flow volume improvement effect ([3]; MS-SOD 2000 μg/mL): 71%
- Blood flow volume (mean ± SE) ([3]; MS-SOD 2000 μg/mL): 0.25 nL/s and 0.25 ± 0.019 nL/s
